Positions count from the first letter of the chain named. Numbers in names are those of the source.
B1: GLS3000 H27dE one-arm antibody (antibody, human IgG1, kappa, L234A L235A, N297A, name in Kabat numbering)
heavy: QVQLVESGGGVVQPGRSLRLSCAASGFTFSNAWMHWVRQAPGKGLEWVAQIKAKSNNYATYYAESVKGRFTISRDDSKNSLYLQMNSLKTEDTAVYYCRYVHYGAYYGVDAWGQGTTVTVSSASTKGPSVFPLAPSSKSTSGGTAALGCLVKDYFPEPVTVSWNSGALTSGVHTFPAVLQSSGLYSLSSVVTVPSSSLGTQTYICNVNHKPSNTKVDKKVEPKSCDKTHTCPPCPAPEAAGGPSVFLFPPKPKDTLMISRTPEVTCVVVDVSHEDPEVKFNWYVDGVEVHNAKTKPREEQYASTYRVVSVLTVLHQDWLNGKEYKCKVSNKALPAPIEKTISKAKGQPREPQVYTLPPSRCELTKNQVSLSCAVKGFYPSDIAVEWESNGQPENNYKTTPPVLDSDGSFFLVSKLTVDKSRWQQGNVFSCSVMHEALHNHYTQKSLSLSPDYKDDDDK
chain: EPKSSDKTHTCPPCPAPELLGGPSVFLFPPKPKDTLMISRTPEVTCVVVDVSHEDPEVKFNWYVDGVEVHNAKTKPREEQYNSTYRVVSVLTVLHQDWLNGKEYKCKVSNKALPAPIEKTISKAKGQPREPQVCTLPPSRDELTKNQVSLWCLVKGFYPSDIAVEWESNGQPENNYKTTPPVLDSDGSFFLYSKLTVDKSRWQQGNVFSCSVMHEALHNRYTQKSLSLSP
light: DIVMTQSPLSLPVTPGEPASISCRSSQSLVESNRNTYLHWYQQKPGQAPRLLIYKVSNRFSGVPDRFSGSGSGTDFTLKISRVEAEDVGVYYCGQGTQVPYTFGQGTKLEIKRTVAAPSVFIFPPSDEQLKSGTASVVCLLNNFYPREAKVQWKVDNALQSGNSQESVTEQDSKDSTYSLSSTLTLSKADYEKHKVYACEVTHQGLSSPVTKSFNRGEC
B2: GLS3000 H27dF one-arm antibody (antibody, human IgG1, kappa, L234A L235A, N297A, name in Kabat numbering)
heavy: B1 heavy
chain: B1 chain
light: B1 light with E31F
B3: GLS3000 H27dG one-arm antibody (antibody, human IgG1, kappa, L234A L235A, N297A, name in Kabat numbering)
heavy: B1 heavy
chain: B1 chain
light: B1 light with E31G
B4: GLS3000 H27dI one-arm antibody (antibody, human IgG1, kappa, L234A L235A, N297A, name in Kabat numbering)
heavy: B1 heavy
chain: B1 chain
light: B1 light with E31I
B5: GLS3000 H27dK one-arm antibody (antibody, human IgG1, kappa, L234A L235A, N297A, name in Kabat numbering)
heavy: B1 heavy
chain: B1 chain
light: B1 light with E31K
B6: GLS3000 H27dL one-arm antibody (antibody, human IgG1, kappa, L234A L235A, N297A, name in Kabat numbering)
heavy: B1 heavy
chain: B1 chain
light: B1 light with E31L
B7: GLS3000 H27dM one-arm antibody (antibody, human IgG1, kappa, L234A L235A, N297A, name in Kabat numbering)
heavy: B1 heavy
chain: B1 chain
light: B1 light with E31M
B8: GLS3000 H27dN one-arm antibody (antibody, human IgG1, kappa, L234A L235A, N297A, name in Kabat numbering)
heavy: B1 heavy
chain: B1 chain
light: B1 light with E31N
B9: GLS3000 H27dP one-arm antibody (antibody, human IgG1, kappa, L234A L235A, N297A, name in Kabat numbering)
heavy: B1 heavy
chain: B1 chain
light: B1 light with E31P
B10: GLS3000 H27dQ one-arm antibody (antibody, human IgG1, kappa, L234A L235A, N297A, name in Kabat numbering)
heavy: B1 heavy
chain: B1 chain
light: B1 light with E31Q
B11: GLS3000 H27dR one-arm antibody (antibody, human IgG1, kappa, L234A L235A, N297A, name in Kabat numbering)
heavy: B1 heavy
chain: B1 chain
light: B1 light with E31R
B12: GLS3000 H27dS one-arm antibody (antibody, human IgG1, kappa, L234A L235A, N297A, name in Kabat numbering)
heavy: B1 heavy
chain: B1 chain
light: B1 light with E31S
B13: GLS3000 H27dT one-arm antibody (antibody, human IgG1, kappa, L234A L235A, N297A, name in Kabat numbering)
heavy: B1 heavy
chain: B1 chain
light: B1 light with E31T
B14: GLS3000 H27dV one-arm antibody (antibody, human IgG1, kappa, L234A L235A, N297A, name in Kabat numbering)
heavy: B1 heavy
chain: B1 chain
light: B1 light with E31V
B15: GLS3000 H27dW one-arm antibody (antibody, human IgG1, kappa, L234A L235A, N297A, name in Kabat numbering)
heavy: B1 heavy
chain: B1 chain
light: B1 light with E31W
B16: GLS3000 H27dY one-arm antibody (antibody, human IgG1, kappa, L234A L235A, N297A, name in Kabat numbering)
heavy: B1 heavy
chain: B1 chain
light: B1 light with E31Y
B17: GLS3000 H34A one-arm antibody (antibody, human IgG1, kappa, L234A L235A, N297A, name in Kabat numbering)
heavy: B1 heavy
chain: B1 chain
light: B1 light with E31H, H39A
B18: GLS3000 H34D one-arm antibody (antibody, human IgG1, kappa, L234A L235A, N297A, name in Kabat numbering)
heavy: B1 heavy
chain: B1 chain
light: B1 light with E31H, H39D
B19: GLS3000 H34E one-arm antibody (antibody, human IgG1, kappa, L234A L235A, N297A, name in Kabat numbering)
heavy: B1 heavy
chain: B1 chain
light: B1 light with E31H, H39E
B20: GLS3000 H34F one-arm antibody (antibody, human IgG1, kappa, L234A L235A, N297A, name in Kabat numbering)
heavy: B1 heavy
chain: B1 chain
light: B1 light with E31H, H39F
B21: GLS3000 H34G one-arm antibody (antibody, human IgG1, kappa, L234A L235A, N297A, name in Kabat numbering)
heavy: B1 heavy
chain: B1 chain
light: B1 light with E31H, H39G
B22: GLS3000 H34I one-arm antibody (antibody, human IgG1, kappa, L234A L235A, N297A, name in Kabat numbering)
heavy: B1 heavy
chain: B1 chain
light: B1 light with E31H, H39I
B23: GLS3000 H34K one-arm antibody (antibody, human IgG1, kappa, L234A L235A, N297A, name in Kabat numbering)
heavy: B1 heavy
chain: B1 chain
light: B1 light with E31H, H39K
B24: GLS3000 H34L one-arm antibody (antibody, human IgG1, kappa, L234A L235A, N297A, name in Kabat numbering)
heavy: B1 heavy
chain: B1 chain
light: B1 light with E31H, H39L
B25: GLS3000 H34M one-arm antibody (antibody, human IgG1, kappa, L234A L235A, N297A, name in Kabat numbering)
heavy: B1 heavy
chain: B1 chain
light: B1 light with E31H, H39M
B26: GLS3000 H34N one-arm antibody (antibody, human IgG1, kappa, L234A L235A, N297A, name in Kabat numbering)
heavy: B1 heavy
chain: B1 chain
light: B1 light with E31H, H39N
B27: GLS3000 H34P one-arm antibody (antibody, human IgG1, kappa, L234A L235A, N297A, name in Kabat numbering)
heavy: B1 heavy
chain: B1 chain
light: B1 light with E31H, H39P
B28: GLS3000 H34Q one-arm antibody (antibody, human IgG1, kappa, L234A L235A, N297A, name in Kabat numbering)
heavy: B1 heavy
chain: B1 chain
light: B1 light with E31H, H39Q
B29: GLS3000 H34R one-arm antibody (antibody, human IgG1, kappa, L234A L235A, N297A, name in Kabat numbering)
heavy: B1 heavy
chain: B1 chain
light: B1 light with E31H, H39R
B30: GLS3000 H34S one-arm antibody (antibody, human IgG1, kappa, L234A L235A, N297A, name in Kabat numbering)
heavy: B1 heavy
chain: B1 chain
light: B1 light with E31H, H39S
B31: GLS3000 H34T one-arm antibody (antibody, human IgG1, kappa, L234A L235A, N297A, name in Kabat numbering)
heavy: B1 heavy
chain: B1 chain
light: B1 light with E31H, H39T
B32: GLS3000 H34V one-arm antibody (antibody, human IgG1, kappa, L234A L235A, N297A, name in Kabat numbering)
heavy: B1 heavy
chain: B1 chain
light: B1 light with E31H, H39V
B33: GLS3000 H34W one-arm antibody (antibody, human IgG1, kappa, L234A L235A, N297A, name in Kabat numbering)
heavy: B1 heavy
chain: B1 chain
light: B1 light with E31H, H39W
B34: GLS3000 H34Y one-arm antibody (antibody, human IgG1, kappa, L234A L235A, N297A, name in Kabat numbering)
heavy: B1 heavy
chain: B1 chain
light: B1 light with E31H, H39Y

Target: T1, CD3ε homodimer protein (human, UniProt P07766 23-126, limits assumed)
T1 construct: also called CD3 (CD3ε)
T1 sequence (P07766 23-126 limits assumed): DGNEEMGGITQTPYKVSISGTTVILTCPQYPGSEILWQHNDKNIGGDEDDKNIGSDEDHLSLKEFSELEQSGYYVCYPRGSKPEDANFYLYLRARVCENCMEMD
Test: SPR Biacore T200, CD3ε homodimer on chip;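 note: Light-chain single-residue variant antibodies injected over amine-coupled CD3ε homodimer on a CM4 chip at 25 °C, bound amount divided by that of the GLS3000-containing antibody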

Binder | ratio of amount bound vs unaltered GLS3000
B1 | 0.23
B2 | 0.63
B3 | 0.3
B4 | 0.26
B5 | 0.29
B6 | 0.3
B7 | 0.3
B8 | 0.3
B9 | 0.24
B10 | 0.25
B11 | 0.31
B12 | 0.32
B13 | 0.29
B14 | 0.3
B15 | 0.39
B16 | 0.64
B17 | 1.06

Binder | ratio of amount bound vs unaltered GLS3000
B18 | 0.22
B19 | 0.23
B20 | 0.27
B21 | 1.02
B22 | 0.65
B23 | 2.17
B24 | 0.59
B25 | 0.35
B26 | 0.65
B27 | 0.34
B28 | 0.25
B29 | 0.2
B30 | 0.78
B31 | 0.89
B32 | 0.85
B33 | 0.24
B34 | 0.59

From patent US20260049138A1 (Chugai, published 2026)
